# Patent publication US20230374140A1 (Memorial Sloan Kettering, published 2023)
# Numbering of substitutions follows the chain as printed.
# B1: Clone 11 scFv phage clone (Clone 11 scFv) (scFv)
# scFv: NFMLTQPHSVSESPGKTVTISCTRSSGSIASNYVQWYQQRPGSAPTTVIYEDNQRPSGVPDRFSGSIDSSSNSASLTISGLKTEDEADYYCQSYDSSNVVFGGGTKLTVLGSRGGGGSGGGGSGGGGSLEMAQVQLVQSGAEVRKPGASVKVSCKASGYSFTSNGITWVRQAPGQGLEWMGWISGYNANTRYAQEFQARVTMTTDTSASTAYMELRSLRSDDTAVYYCARHAYWGGDSDYWGQGTLVTVSS
# B2: Clone 18 scFv phage clone (Clone 18 scFv) (scFv)
# scFv: QSVLTQPPSVSVAPGQKVTISCSGSSSNIGNNYVSWYQQLPGTAPKLLIYDNNKRPSGIPDRFSGSKSGTSATLGITGLQTGDEADYYCQSYDVYNMTSVFGGGTKLTVLGSRGGGGSGGGGSGGGGSLEMAQMQLVQSGAEVKKPGSSVKVSCKASGGTFSSYAISWVRQAPGQGLEWMGGIIPIFGTANYAQKFQGRVTITADESTSTAYMELSSLRSDDTAVYYCARGFSSWPGIDQWGQGTLVTVSS
# B3: Clone 19 scFv phage clone (Clone 19 scFv) (scFv)
# scFv: NFMLTQPHSVSESPGKTVTISCVRSSGSVASEFVQWYQQRPGHAPTLVIYNDFQRPSGVPDRFSGSIDKSSNSASLTISGLKAEDEADYYCQSYDQSSSIVFGGGTKLTVLGSRGGGGSGGGGSGGGGSLEMAEVQLVQSGAEVKKPGESLKISCKGSGYSFTTYWIGWVRQMPGKGLEWMGIIYPGDSDTTYSPSFQGQVTISADKSLSIAYLQWSSLKASDTAMYYCARYGGQYFWSDSFDSWGQGTLVTVSS
# B4: Clone 14 scFv phage clone (Clone 14 scFv) (scFv)
# scFv: QSVLTQPPSVSAAPGQRVTISCSGSTSNIGSNYVSWYQQFPGTAPKLLIYDSDKRISGIPDRFSGSKSGTSATLGITGLQTGDEADYYCGTWDSSLTVGVFGGGTKVTVLGSRGGGGSGGGGSGGGGSLEMAQLQLQESGPGLVKPSGTLSLTCAVSGGSISSSNWWSWVRQPPGKGLEWIGEIYHSGSTNYNPSLKSRVTISVDKSKNQFSLKLSSVTAADTAVYYCARYFGQKYDYWGQGTLVTVSS
# B5: Clone 1 scFv phage clone (Clone 01 scFv) (scFv)
# scFv: DIQLTQSPSSLSASVGDRVTITCRASQGIRNDLGWYQQKPGKAPKLMIYAASSLQSGVPSRFSGSGSGTDFTLTISSLQPEDFATYYCLQDYDYPLTFGGGTKLEIKRSRGGGGSGGGGSGGGGSLEMAEVQLVQSGAEVKKPGESLKISCEASGYSFSSNWIAWVRQRPGKGLEWMGIIYPGDSDTRYSPSFQGQVTMSADMSISTAYLQWSSLKASDTAMYYCARFAGPGMWSYGFDYWGQGTLVTVSS
# notes: also called phage clone 1
# B6: Clone 16 scFv phage clone (scFv, V domains shown)
# VH: QVQLVQSGAEVKKPGASVKVSCKASGYTFTSYYMHWVRQAPGQGLEWMGIINPSGGSTSYAQKFQGRVTMTRDTSTSTVYMELSSLRSEDTAVYYCARRGWLSWGYYGMDVWGQGTTVTVSS
# VL: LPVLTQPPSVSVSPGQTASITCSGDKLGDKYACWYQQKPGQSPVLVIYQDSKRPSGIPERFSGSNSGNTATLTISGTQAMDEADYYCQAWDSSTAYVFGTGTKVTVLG
# B7: Clone 5 scFv phage clone (scFv, V domains shown)
# VH: QLQLQESGPGLVKPSGTLSLTCAVSGGSISSSNWWSWVRQPPGKGLEWIGEIYHSGSTNYNPSLKSRVTISVDKSKNQFSLKLSSVTAADTAVYYCARFIYGSSSSQTDTWGQGTLVTVSS
# VL: QSVLTQPPSVSAAPGQKVTISCSGSSSNIGSNYIYWYQQFPGTAPKLLIYDDNKRPSGIPDRFSGSRSGTSATLGITGLQTGDEADYYCGTWDSPLVAWVFGGGTKLTVLG
# B8: Clone 12 scFv phage clone (scFv, V domains shown)
# VH: QVQLQESGPGLVKPSGTLSLTCAVSGGSISSSNWWSWVRQAPGKGLEWIGEIYHGGSTNFNPSLKSRVTISVDKSKNQFSLNLTSVTAADTAVYYCARYASSSHDFWGQGTLVTVSS
# VL: QSVLTQPPSVSAAPGQRVTIYCSGSRSNIVSNYVSWYQQLPGTAPKLLIYDNNKRPSGIPDRFSGSKSGTSATLGITGLQTGDEADYYCGTWDSSLSAYVFGTGTKVAVLG
# B9: Clone 10 scFv phage clone (scFv, V domains shown)
# VH: QVQLQESGPGLVKPPGTLSLTCAVSGGSISSSNWWSWVRQPPGKGLEWIGEIYHSGSTNYNPSLNSRVIISDDTSKNQFSLTLTSVTAADTAVYYCARYYNSYYDSWGQGTLVTVSS
# VL: B8 VL with R17K, Y21S, R26S, V30G, A108T
# B10: Clone 2 scFv phage clone (scFv, V domains shown)
# VH: QVQLVQSGAEVKKPGSSVKVSCKASGGTFSSYAISWVRQAPGQGLEWMGWISAYNGNTNYAQKLQGRVTMTTDTSTSTAYMELRSLRSDDTAVYYCARKGFYSGFDSWGQGTLVTVSS
# VL: B8 VL with R17K, Y21S, R26S, V30G, N53T, T70S, G90E, W92L, A108T
# notes: also called phage clone 2
# B11: Clone 8 scFv phage clone (scFv, V domains shown)
# VH: QLQLQESGPGLVKPSETLSLTCTVSGDSISGYYWSWIRQPPGKGLEWIGEINHSGSTNYNPSLKSRVTISVDTSKNQFSLKLSSVTAADTAVYYCARYYSGFYSSDGWGQGTLVTVSS
# VL: B8 VL with G15R, R17K, Y21S, R26S, V30G, K67R, T91S, A98V, A108T
# B12: Clone 9 scFv phage clone (scFv, V domains shown)
# VH: B8 VH with S15P, A41P, G55S, F60Y, N82K, T84S, A100E, S101Q, S102G, F106S
# VL: B8 VL with R17K, Y21S, R26S, V30G, V34I, N53S, S66F, T103S, A108T
# B13: Clone 15 scFv phage clone (scFv, V domains shown)
# VH: QVQLQESGPGLVKPSGTLSLTCAVSGGSISSSNWWSWVRQPPGKGLEWIGEIYHSGSTNYNPSLKSRVTISVDKSKNQFSLKLSSVTAADTAVYYCARYPGFVWDLWGQGTLVTVSS
# VL: B8 VL with R17K, Y21S, R26S, V30G, T73I, S97T, Y99G, A108T
# B14: Clone 4 scFv phage clone (scFv, V domains shown)
# VH: QVQLQQWGAGLLKPSETLSLTCAVYGGSFSGYYWSWIRQPPGKGLEWIGEINHSGSTNYNPSLKSRVTISVDTSKNQFSLKLSSVTAADTAVYYCARGVPYDYWGQGTLVTVSS
# VL: QSVLTQPPSVSAAAGQKVTISCSGSRSNIGSNFVSWYQLLPGTAPRLLIYDNNVRPSGIPDRFSGSKSGSSATLGITGLQTGDEADYYCGTWDSSLIAGVFGGGTKLTVLG
# B15: Clone 6 scFv phage clone (scFv, V domains shown)
# VH: QVQLQQWGAGLLKPSETLSLTCAVYGGSFSGYYWSWIRQPPGKGLEWIGEINHSGSTNYNPSLKSRVTISVDTSKNQFSLKLSSVTAADTAVYYCARLEGSYYDVWGQGTLVTVSS
# VL: QSVLTQPPSVSAAPGQKVTVSCSGTTSDIGSNYVTWYQQLPGTTPKLIIYDNNKRPSGIPDRFSGSKSGTSGTLGITGLQTGDEADYYCGTWDSSLNTFVFGTGTKVTVLG
# Target: T1, NC1 peptide … / HLA-A*02:01 complex (human)
# T1 construct: whole, on cells; On pulsed T2 cells; also pulled down from BV173 lysate (HLA-A*02) and presented on JMN cells
# Experiment: FACS, scFv phage on T2 cells loaded with single peptide
row,Binder,binding result
1,B1,no binding
2,B2,no binding
3,B3,no binding
4,B4,no binding
5,B5,no binding

# Target: T2, NC3 peptide … / HLA-A*02:01 complex (human)
# T2 construct: whole, on cells; On pulsed T2 cells; also pulled down from BV173 lysate (HLA-A*02)
# Experiment: as above
row,Binder,binding result
1,B1,no binding
2,B2,no binding
3,B3,no binding
4,B4,no binding
5,B5,no binding

# Target: T3, NC2 peptide … / HLA-A*02:01 complex (human)
# T3 construct: whole, on cells; On pulsed T2 cells; also presented on JMN cells (HLA-A*02)
# Experiment: as above
row,Binder,binding result
1,B1,no binding
2,B2,no binding
3,B3,no binding
4,B4,no binding
5,B5,no binding

# Target: T4, NC4 peptide … / HLA-A*02:01 complex (human)
# T4 construct: whole, on cells; On pulsed T2 cells
# Experiment: as above
row,Binder,binding result
1,B1,no binding
2,B2,no binding
3,B3,no binding
4,B4,no binding
5,B5,no binding

# Target: T5, NDC80 Peptide A … / HLA-A*02:01 complex (human)
# T5 construct: whole, on cells; On peptide-pulsed T2 cells (HLA-A*02:01+); also called NDC80/HLA-A*02:01 complex; NDC80/MHC I
# Experiment: FACS, scFv phage on peptide-loaded T2 cells
# Text: 34 human phage scFv libraries were used to pan against NDC80/HLA-A*02:01 complex. In order to avoid the conformational change of MHC I complex introduced by immobilizing the protein complex onto plastic surfaces, cell panning was used in place of conventional plate panning. In cell panning, the human scFv phage libraries were first mixed with T2 cells loaded with control peptides to remove scFv phage clones that bind to T2 cells alone or MHC alone. […] T2 is a TAP-deficient, HLA-A*02:01⁺ lymphoblast cell line that express low amounts of HLA-A*02 on the cell surface and can only present exogenous peptides. […] After extensive washing with PBS, peptide-loaded T2 cells with bound scFv antibody phage were spun down. […] The panning was performed for 3 rounds to enrich scFv phage clones that bound NDC80/HLA-A*02:01 specifically.
row,Binder,binding result
1,B1,binds
2,B6,binds
3,B2,binds
4,B7,binds
5,B3,binds
6,B8,binds
7,B9,binds
8,B10,binds
9,B11,binds
10,B12,binds
11,B13,binds
12,B14,binds
13,B4,binds
14,B5,binds
15,B15,binds
